Measurements published in patent US20160097096A1 (KOREA RESEARCH INSTITUTE OF BIOSCIENCE AND BIOTECHNOLOGY, published 2016).

Target: T1, human Desmoglein 2 (Dsg2) (human, UniProt Q14126 50-1118)
T1 construct: whole, on cells; Endogenous protein; In flow cytometry it stood on the surface of H1, H9 and iPSC cells; In immunoprecipitation and Western blotting it came from lysate of (surface-biotinylated) H9 cells, with bands of 165 kDa or 100 kDa
T1 sequence (looked up): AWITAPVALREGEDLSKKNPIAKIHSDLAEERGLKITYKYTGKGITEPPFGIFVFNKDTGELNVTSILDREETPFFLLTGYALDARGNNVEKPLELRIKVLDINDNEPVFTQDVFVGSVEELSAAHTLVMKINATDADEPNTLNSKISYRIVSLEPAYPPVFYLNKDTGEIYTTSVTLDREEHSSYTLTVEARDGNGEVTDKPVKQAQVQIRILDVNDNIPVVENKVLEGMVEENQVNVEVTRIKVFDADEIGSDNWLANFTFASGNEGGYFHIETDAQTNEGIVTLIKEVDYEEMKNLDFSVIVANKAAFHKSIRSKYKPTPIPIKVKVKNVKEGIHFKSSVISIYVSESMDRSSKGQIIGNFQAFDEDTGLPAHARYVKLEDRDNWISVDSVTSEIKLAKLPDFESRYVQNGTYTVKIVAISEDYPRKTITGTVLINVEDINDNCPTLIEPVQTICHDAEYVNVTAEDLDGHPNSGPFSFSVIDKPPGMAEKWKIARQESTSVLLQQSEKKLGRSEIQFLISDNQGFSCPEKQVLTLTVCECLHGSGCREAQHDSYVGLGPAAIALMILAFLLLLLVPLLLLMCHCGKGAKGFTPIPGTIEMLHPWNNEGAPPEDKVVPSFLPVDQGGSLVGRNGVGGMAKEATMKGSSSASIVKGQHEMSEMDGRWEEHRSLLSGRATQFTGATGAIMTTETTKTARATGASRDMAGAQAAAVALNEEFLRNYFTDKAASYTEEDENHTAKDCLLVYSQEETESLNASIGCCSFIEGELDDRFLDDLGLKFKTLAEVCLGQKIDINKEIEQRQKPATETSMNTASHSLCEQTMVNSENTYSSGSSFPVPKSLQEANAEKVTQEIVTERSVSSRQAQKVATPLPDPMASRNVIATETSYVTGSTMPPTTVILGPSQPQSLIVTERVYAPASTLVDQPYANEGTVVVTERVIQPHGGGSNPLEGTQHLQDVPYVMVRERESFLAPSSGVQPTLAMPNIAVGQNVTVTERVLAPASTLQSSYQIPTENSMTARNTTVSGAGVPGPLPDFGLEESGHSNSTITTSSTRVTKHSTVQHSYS
Experiment: flow cytometry, fluorescence staining of H1, H9 and iPSC cells (endogenous Dsg2 on the surface)
Method: Among those clones prepared in Example 2, the hybridoma clone which secreted the antibody comparatively stably was selected and the binding capacity to human pluripotent stem cells was investigated. Particularly, the cultured human pluripotent stem cells were separated by using collagenase IV. The cells were treated with cell separation buffer (GIBCO) for 20 minutes at 37° C., leading to the separation of the cells as single cells. The cells were passed through 40 μm strainer, and 2×10⁵ cells proceeded to flow cytometry. The human pluripotent stem cells prepared as single cells were suspended in PBA (1% BSA was dissolved in PBS), followed by reaction with the antibody supernatant at 4° C. for 30 minutes. Centrifugation was performed at 4° C. at 1200 rpm for 5 minutes and 100 μl of the supernatant was eliminated. The anti-mouse Ig-FITC (BD) was diluted (1:200). […]
To investigate the binding capacity of the antibody 6-1 purified in Example <3-2> to human pluripotent stem cells, fluorescence staining was performed by the same manner as described in Example <3-1> (FIG. 2A). […] In FIG. 2A, the blue line illustrates the fluorescence staining of human pluripotent stem cells with the monoclonal antibody 6-1, wherein the antibody 6-1 bound to all of those three kinds of human pluripotent stem cells.

B1: monoclonal antibody 6-1 (antibody, V domains shown)
VH: QVKLQESGPELVRPGESVKISCKGSGYTFTDYAMHWVKQSPAKTLEWLGVISIYYDNTNYNQKFKGKATLTVDKSSSTAYMELARLTSEDSAIYYCAREGDYFALDYWGQGTSVTVSS
VL: DIVMTQSPAIMSASPGEKVTMTCSASSSVSYMYWYQQKPGSSPRLLIYDTSNLASGVPVRFSGSGSGTSYSLTISRMEAEDAATYYCQQWSSFPLTFGAGTKLELKR
notes: Mouse monoclonal antibody from hybridoma 6-1 (Balb/c mouse immunised with H9 cells, fused with NS1 myeloma); Purified from ascites on protein G-sepharose; hybridoma supernatant was used for screening; They were cloned with an IgG1 constant region primer and a kappa chain constant region primer
**Q.** Does B1 bind?
**A.** binds
